# Target: human TNFSF9 (R&D Systems; #2295-4L-025/CF) (human) (UniProt P41273)
# Test: MSD ELISA: TNFSF9 + 1 ug/mL antibody, binding to coated TNFRSF9
# Sequence of human TNFSF9 (R&D Systems; #2295-4L-025/CF) (human) (P41273 71-254 limits assumed): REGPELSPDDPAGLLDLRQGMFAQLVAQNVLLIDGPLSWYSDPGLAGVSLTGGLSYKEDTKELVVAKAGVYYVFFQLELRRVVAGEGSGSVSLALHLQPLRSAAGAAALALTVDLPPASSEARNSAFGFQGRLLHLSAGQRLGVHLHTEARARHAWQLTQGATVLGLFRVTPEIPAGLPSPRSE
row,% inhibition of ligand receptor interaction,Substance
1,1%,mouse IgG1 isotype control antibody
2,0%,huIgG1 (antibody)
3,-5%,msIgG2b (antibody)
4,-4%,msIgG2a (antibody)
